From article PMC10540216, “Activity Guided Azide-methyllysine Photo-trapping for Substrate Profiling of Lysine Demethylases” (Journal of the American Chemical Society, 2023) come the findings set out here.

Sequences and labels used below:
B1: CAPR1_HUMAN (protein, UniProt Q14444 2-709, looked up)
Caprin-1: PSATSHSGSGSKSSGPPPPSGSSGSEAAAGAGAAAPASQHPATGTGAVQTEAMKQILGVIDKKLRNLEKKKGKLDDYQERMNKGERLNQDQLDAVSKYQEVTNNLEFAKELQRSFMALSQDIQKTIKKTARREQLMREEAEQKRLKTVLELQYVLDKLGDDEVRTDLKQGLNGVPILSEEELSLLDEFYKLVDPERDMSLRLNEQYEHASIHLWDLLEGKEKPVCGTTYKVLKEIVERVFQSNYFDSTHNHQNGLCEEEEAASAPAVEDQVPEAEPEPAEEYTEQSEVESTEYVNRQFMAETQFTSGEKEQVDEWTVETVEVVNSLQQQPQAASPSVPEPHSLTPVAQADPLVRRQRVQDLMAQMQGPYNFIQDSMLDFENQTLDPAIVSAQPMNPTQNMDMPQLVCPPVHSESRLAQPNQVPVQPEATQVPLVSSTSEGYTASQPLYQPSHATEQRPQKEPIDQIQATISLNTDQTTASSSLPAASQPQVFQAGTSKPLHSSGINVNAAPFQSMQTVFNMNAPVPPVNEPETLKQQNQYQASYNQSFSSQPHQVEQTELQQEQLQTVVGTYHGSPDQSHQVTGNHQQPPQQNTGFPRSNQPYYNSRGVSRGGSRGARGLMNGYRGPANGFRGGYDGYRPSFSNTPNSGYTQSQFSAPRDYSGYQRDGYQQNFKRGSGQSGPRGAPRGRGGPPRPNRGMPQMNTQQVN
B2: C1TM_HUMAN (protein, UniProt Q6UB35 32-978, looked up)
Monofunctional …: SSGGGGGGGGGREGLLGQRRPQDGQARSSCSPGGRTPAARDSIVREVIQNSKEVLSLLQEKNPAFKPVLAIIQAGDDNLMQEINQNLAEEAGLNITHICLPPDSSEAEIIDEILKINEDTRVHGLALQISENLFSNKVLNALKPEKDVDGVTDINLGKLVRGDAHECFVSPVAKAVIELLEKSGVNLDGKKILVVGAHGSLEAALQCLFQRKGSMTMSIQWKTRQLQSKLHEADIVVLGSPKPEEIPLTWIQPGTTVLNCSHDFLSGKVGCGSPRIHFGGLIEEDDVILLAAALRIQNMVSSGRRWLREQQHRRWRLHCLKLQPLSPVPSDIEISRGQTPKAVDVLAKEIGLLADEIEIYGKSKAKVRLSVLERLKDQADGKYVLVAGITPTPLGEGKSTVTIGLVQALTAHLNVNSFACLRQPSQGPTFGVKGGAAGGGYAQVIPMEEFNLHLTGDIHAITAANNLLAAAIDTRILHENTQTDKALYNRLVPLVNGVREFSEIQLARLKKLGINKTDPSTLTEEEVSKFARLDIDPSTITWQRVLDTNDRFLRKITIGQGNTEKGHYRQAQFDIAVASEIMAVLALTDSLADMKARLGRMVVASDKSGQPVTADDLGVTGALTVLMKDAIKPNLMQTLEGTPVFVHAGPFANIAHGNSSVLADKIALKLVGEEGFVVTEAGFGADIGMEKFFNIKCRASGLVPNVVVLVATVRALKMHGGGPSVTAGVPLKKEYTEENIQLVADGCCNLQKQIQITQLFGVPVVVALNVFKTDTRAEIDLVCELAKRAGAFDAVPCYHWSVGGKGSVDLARAVREAASKRSRFQFLYDVQVPIVDKIRTIAQAVYGAKDIELSPEAQAKIDRYTQQGFGNLPICMAKTHLSLSHQPDKKGVPRDFILPISDVRASIGAGFIYPLVGTMSTMPGLPTRPCFYDIDLDTETEQVKGLF
B3: MCCA_HUMAN (protein, UniProt Q96RQ3 42-725, looked up)
Methylcrotonoyl-CoA …: TTATGRNITKVLIANRGEIACRVMRTAKKLGVQTVAVYSEADRNSMHVDMADEAYSIGPAPSQQSYLSMEKIIQVAKTSAAQAIHPGCGFLSENMEFAELCKQEGIIFIGPPPSAIRDMGIKSTSKSIMAAAGVPVVEGYHGEDQSDQCLKEHARRIGYPVMIKAVRGGGGKGMRIVRSEQEFQEQLESARREAKKSFNDDAMLIEKFVDTPRHVEVQVFGDHHGNAVYLFERDCSVQRRHQKIIEEAPAPGIKSEVRKKLGEAAVRAAKAVNYVGAGTVEFIMDSKHNFCFMEMNTRLQVEHPVTEMITGTDLVEWQLRIAAGEKIPLSQEEITLQGHAFEARIYAEDPSNNFMPVAGPLVHLSTPRADPSTRIETGVRQGDEVSVHYDPMIAKLVVWAADRQAALTKLRYSLRQYNIVGLHTNIDFLLNLSGHPEFEAGNVHTDFIPQHHKQLLLSRKAAAKESLCQAALGLILKEKAMTDTFTLQAHDQFSPFSSSSGRRLNISYTRNMTLKDGKNNVAIAVTYNHDGSYSMQIEDKTFQVLGNLYSEGDCTYLKCSVNGVASKAKLIILENTIYLFSKEGSIEIDIPVPKYLSSVSSQETQGGPLAPMTGTIEKVFVKAGDKVKAGDSLMVMIAMKMEHTIKSPKDGTVKKVFYREGAQANRHTPLVEFEEEESDKRESE
B4: NU160_HUMAN (protein, UniProt Q12769 1-1436, looked up)
Nuclear pore complex protein …: MLHLSAAPPAPPPEVTATARPCLCSVGRRGDGGKMAAAGALERSFVELSGAERERPRHFREFTVCSIGTANAVAGAVKYSESAGGFYYVESGKLFSVTRNRFIHWKTSGDTLELMEESLDINLLNNAIRLKFQNCSVLPGGVYVSETQNRVIILMLTNQTVHRLLLPHPSRMYRSELVVDSQMQSIFTDIGKVDFTDPCNYQLIPAVPGISPNSTASTAWLSSDGEALFALPCASGGIFVLKLPPYDIPGMVSVVELKQSSVMQRLLTGWMPTAIRGDQSPSDRPLSLAVHCVEHDAFIFALCQDHKLRMWSYKEQMCLMVADMLEYVPVKKDLRLTAGTGHKLRLAYSPTMGLYLGIYMHAPKRGQFCIFQLVSTESNRYSLDHISSLFTSQETLIDFALTSTDIWALWHDAENQTVVKYINFEHNVAGQWNPVFMQPLPEEEIVIRDDQDPREMYLQSLFTPGQFTNEALCKALQIFCRGTERNLDLSWSELKKEVTLAVENELQGSVTEYEFSQEEFRNLQQEFWCKFYACCLQYQEALSHPLALHLNPHTNMVCLLKKGYLSFLIPSSLVDHLYLLPYENLLTEDETTISDDVDIARDVICLIKCLRLIEESVTVDMSVIMEMSCYNLQSPEKAAEQILEDMITIDVENVMEDICSKLQEIRNPIHAIGLLIREMDYETEVEMEKGFNPAQPLNIRMNLTQLYGSNTAGYIVCRGVHKIASTRFLICRDLLILQQLLMRLGDAVIWGTGQLFQAQQDLLHRTAPLLLSYYLIKWGSECLATDVPLDTLESNLQHLSVLELTDSGALMANRFVSSPQTIVELFFQEVARKHIISHLFSQPKAPLSQTGLNWPEMITAITSYLLQLLWPSNPGCLFLECLMGNCQYVQLQDYIQLLHPWCQVNVGSCRFMLGRCYLVTGEGQKALECFCQAASEVGKEEFLDRLIRSEDGEIVSTPRLQYYDKVLRLLDVIGLPELVIQLATSAITEAGDDWKSQATLRTCIFKHHLDLGHNSQAYEALTQIPDSSRQLDCLRQLVVVLCERSQLQDLVEFPYVNLHNEVVGIIESRARAVDLMTHNYYELLYAFHIYRHNYRKAGTVMFEYGMRLGREVRTLRGLEKQGNCYLAALNCLRLIRPEYAWIVQPVSGAVYDRPGASPKRNHDGECTAAPTNRQIEILELEDLEKECSLARIRLTLAQHDPSAVAVAGSSSAEEMVTLLVQAGLFDTAISLCQTFKLPLTPVFEGLAFKCIKLQFGGEAAQAEAWAWLAANQLSSVITTKESSATDEAWRLLSTYLERYKVQNNLYHHCVINKLLSHGVPLPNWLINSYKKVDAAELLRLYLNYDLLEEAVDLVSEYVDAVLGKGHQYFGIEFPLSATAPMVWLPYSSIDQLLQALGENSANSHNIALSQKILDKLEDYQQKVDKATRDLLYRRTL
B5: DDX5_HUMAN (protein, UniProt P17844 1-614, looked up)
Probable ATP-dependent RNA …: MSGYSSDRDRGRDRGFGAPRFGGSRAGPLSGKKFGNPGEKLVKKKWNLDELPKFEKNFYQEHPDLARRTAQEVETYRRSKEITVRGHNCPKPVLNFYEANFPANVMDVIARQNFTEPTAIQAQGWPVALSGLDMVGVAQTGSGKTLSYLLPAIVHINHQPFLERGDGPICLVLAPTRELAQQVQQVAAEYCRACRLKSTCIYGGAPKGPQIRDLERGVEICIATPGRLIDFLECGKTNLRRTTYLVLDEADRMLDMGFEPQIRKIVDQIRPDRQTLMWSATWPKEVRQLAEDFLKDYIHINIGALELSANHNILQIVDVCHDVEKDEKLIRLMEEIMSEKENKTIVFVETKRRCDELTRKMRRDGWPAMGIHGDKSQQERDWVLNEFKHGKAPILIATDVASRGLDVEDVKFVINYDYPNSSEDYIHRIGRTARSTKTGTAYTFFTPNNIKQVSDLISVLREANQAINPKLLQLVEDRGSGRSRGRGGMKDDRRDRYSAGKRGGFNTFRDRENYDRGYSSLLKRDFGAKTQNGVYSAANYTNGSFGSNFVSAGIQTSFRTGNPTGTYQNGYDSTQQYGSNVPNMHNGMNQQAYAYPATAAAPMIGYPMPTGYSQ
B6: P5CS_HUMAN (protein, UniProt P54886 1-795, looked up)
Delta-1-pyrroline-5-carboxylat …: MLSQVYRCGFQPFNQHLLPWVKCTTVFRSHCIQPSVIRHVRSWSNIPFITVPLSRTHGKSFAHRSELKHAKRIVVKLGSAVVTRGDECGLALGRLASIVEQVSVLQNQGREMMLVTSGAVAFGKQRLRHEILLSQSVRQALHSGQNQLKEMAIPVLEARACAAAGQSGLMALYEAMFTQYSICAAQILVTNLDFHDEQKRRNLNGTLHELLRMNIVPIVNTNDAVVPPAEPNSDLQGVNVISVKDNDSLAARLAVEMKTDLLIVLSDVEGLFDSPPGSDDAKLIDIFYPGDQQSVTFGTKSRVGMGGMEAKVKAALWALQGGTSVVIANGTHPKVSGHVITDIVEGKKVGTFFSEVKPAGPTVEQQGEMARSGGRMLATLEPEQRAEIIHHLADLLTDQRDEILLANKKDLEEAEGRLAAPLLKRLSLSTSKLNSLAIGLRQIAASSQDSVGRVLRRTRIAKNLELEQVTVPIGVLLVIFESRPDCLPQVAALAIASGNGLLLKGGKEAAHSNRILHLLTQEALSIHGVKEAVQLVNTREEVEDLCRLDKMIDLIIPRGSSQLVRDIQKAAKGIPVMGHSEGICHMYVDSEASVDKVTRLVRDSKCEYPAACNALETLLIHRDLLRTPLFDQIIDMLRVEQVKIHAGPKFASYLTFSPSEVKSLRTEYGDLELCIEVVDNVQDAIDHIHKYGSSHTDVIVTEDENTAEFFLQHVDSACVFWNASTRFSDGYRFGLGAEVGISTSRIHARGPVGLEGLLTTKWLLRGKDHVVSDFSEHGSLKYLHENLPIPQRNTN
B7: NOLC1_HUMAN (protein, UniProt Q14978 1-699, looked up)
Nucleolar and coiled-body …: MADAGIRRVVPSDLYPLVLGFLRDNQLSEVANKFAKATGATQQDANASSLLDIYSFWLKSAKVPERKLQANGPVAKKAKKKASSSDSEDSSEEEEEVQGPPAKKAAVPAKRVGLPPGKAAAKASESSSSEESSDDDDEEDQKKQPVQKGVKPQAKAAKAPPKKAKSSDSDSDSSSEDEPPKNQKPKITPVTVKAQTKAPPKPARAAPKIANGKAASSSSSSSSSSSSDDSEEEKAAATPKKTVPKKQVVAKAPVKAATTPTRKSSSSEDSSSDEEEEQKKPMKNKPGPYSSVPPPSAPPPKKSLGTQPPKKAVEKQQPVESSEDSSDESDSSSEEEKKPPTKAVVSKATTKPPPAKKAAESSSDSSDSDSSEDDEAPSKPAGTTKNSSNKPAVTTKSPAVKPAAAPKQPVGGGQKLLTRKADSSSSEEESSSSEEEKTKKMVATTKPKATAKAALSLPAKQAPQGSRDSSSDSDSSSSEEEEEKTSKSAVKKKPQKVAGGAAPSKPASAKKGKAESSNSSSSDDSSEEEEEKLKGKGSPRPQAPKANGTSALTAQNGKAAKNSEEEEEEKKKAAVVVSKSGSLKKRKQNEAAKEAETPQAKKIKLQTPNTFPKRKKGEKRASSPFRRVREEEIEVDSRVADNSFDAKRGAAGDWGERANQVLKFTKGKSFRHEKTKKKRGSYRGGSISVQVNSIKFDSE

This assay relates to KDM4A-I71AzF. Put plainly: CASI: photo-crosslinking with HEK293T cell extracts, StrepTactin enrichment and LC-MS/MS proteomics.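 Also: lysates from HEK293T cells pretreated with a KDM4 inhibitor to raise proteome methylation, affinity-purified after ±UV, gel-resolved, trypsin-digested, with exclusive unique peptides per protein averaged per condition.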 Format: binding, human. As to conditions: sheet "Final results but with 0.01".
Consider B1, for which the “Fold change (+UV/-UV)” value is listed as 0.5.

Take B2: the “Fold change (+UV/-UV)” value stood at 1.091.

On to B3, for which the “Fold change (+UV/-UV)” value is on record as 0.

Regarding B4, the “Fold change (+UV/-UV)” value is on record as 0.5.

In the case of B5, the “Fold change (+UV/-UV)” value is reported as 1.6.

B6: the “Fold change (+UV/-UV)” value was 2.143.

B7: the “Fold change (+UV/-UV)” value is recorded as 1.
